The results in this text go back to publication PMC4805542.

The subject of this data set is ZF6-KRAB (synthetic construct). Description: EMSA. The following applies: 2.5 uM protein, DNA titrated 130-200 nM; apparent Kd, Scatchard; 6.25 mM MgCl2; 25 mM Hepes pH 7.9, 50 mM KCl, 6.25 mM MgCl2, 1% Nonidet P-40, 5% glycerol; 15 min on ice; 5% PAGE in 0.5x TBE at 4 C. A general note: A gel shift assay detects complexes by their altered migration in electrophoresis.

Take hRHO 65 bp duplex oligonucleotide: the Kd amounted to 0.108 µM.
